The values that follow come from patent US20220249683A1 (MAGENTA THERAPEUTICS, published 2022).

The target of assay [1] is T1, human CD2 on cells (human, UniProt P06729 25-351).
T1 construct: Endogenous CD2 on MOLT-4 human T lymphoblast cells, primary human T cells or primary human NK cells; The cell type is named under assay; also called CD2 on MOLT-4 cells; CD2 on primary human T-cells
T1 sequence: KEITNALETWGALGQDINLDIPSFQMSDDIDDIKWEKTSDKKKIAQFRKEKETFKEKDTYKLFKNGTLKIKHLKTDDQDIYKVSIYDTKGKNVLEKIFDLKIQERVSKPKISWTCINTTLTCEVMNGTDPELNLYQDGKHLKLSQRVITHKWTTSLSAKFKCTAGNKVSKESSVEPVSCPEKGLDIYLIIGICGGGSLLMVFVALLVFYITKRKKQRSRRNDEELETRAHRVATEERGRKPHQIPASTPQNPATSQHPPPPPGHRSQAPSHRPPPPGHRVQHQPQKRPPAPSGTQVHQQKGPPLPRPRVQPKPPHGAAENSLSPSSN
Put plainly: flow cytometry on MOLT-4 cells, antibody titration, anti-mouse AF488 secondary, 4 C.

Assay [2] addresses T2, human CD5 on cells (human, UniProt P06127 25-495).
T2 construct: Endogenous CD5 on MOLT-4 human T lymphoblast cells or primary human T cells; The cell type is named under assay; also called CD5 on MOLT-4 cells; CD5 on primary human T-cells
T2 sequence (looked up): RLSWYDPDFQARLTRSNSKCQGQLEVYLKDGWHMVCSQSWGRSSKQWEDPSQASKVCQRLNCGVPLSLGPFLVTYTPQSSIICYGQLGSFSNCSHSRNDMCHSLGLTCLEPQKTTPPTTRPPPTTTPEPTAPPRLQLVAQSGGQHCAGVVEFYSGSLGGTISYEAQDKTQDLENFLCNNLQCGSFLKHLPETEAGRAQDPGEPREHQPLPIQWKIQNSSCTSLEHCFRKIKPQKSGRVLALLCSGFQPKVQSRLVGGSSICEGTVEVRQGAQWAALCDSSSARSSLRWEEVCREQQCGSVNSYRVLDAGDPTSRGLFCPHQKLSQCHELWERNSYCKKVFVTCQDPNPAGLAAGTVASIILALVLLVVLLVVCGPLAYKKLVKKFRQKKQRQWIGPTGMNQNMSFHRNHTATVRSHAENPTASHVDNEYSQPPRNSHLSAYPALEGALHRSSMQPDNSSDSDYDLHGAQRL
Put plainly: flow cytometry on MOLT-4 cells, antibody titration 2 h at 4 C, anti-mouse AF488 secondary, geometric MFI.

Assay [3] deals with T2, human CD5 on cells. Put plainly: flow cytometry on MOLT-4 cells, antibody titration, anti-mouse AF488 secondary, 4 C.
The target in assay [4] is T3, purified human CD2 ectodomain (human, UniProt P06729 25-209).
T3 construct: Bought reagent; also called Sigma Aldrich Catalog #5086
T3 sequence: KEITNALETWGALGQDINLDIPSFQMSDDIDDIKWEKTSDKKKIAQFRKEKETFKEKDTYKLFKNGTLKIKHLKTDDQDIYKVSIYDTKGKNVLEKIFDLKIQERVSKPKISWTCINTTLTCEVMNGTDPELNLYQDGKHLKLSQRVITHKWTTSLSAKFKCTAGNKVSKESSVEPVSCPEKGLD
Kind of assay: BLI (Octet Red96), IgG on anti-human Fc biosensor, 50 nM human CD2 ectodomain, 1:1 model, apparent monovalent affinity.

The target of assay [5] is T3, purified human CD2 ectodomain. Put plainly: BLI (Octet Red96), IgG on anti-human Fc biosensor, 50 nM human CD2 ectodomain, 1:1 model.
For assay [6], the target named is T1, human CD2 on cells. Kind of assay: flow cytometry on primary human T-cells, antibody titration 2 h at 37 C, AF488 secondary.
The target in assay [7] is T1, human CD2 on cells. Kind of assay: flow cytometry on primary human T-cells, antibody titration 2 h at 37 C, AF488 secondary, MFI.
Procedure: Primary human T-cells were plated at 8×10⁴ cells/well and stained with a titration of the murine anti-CD23 antibody RPA-2.10 for 2 hours at 37° C. Secondary anti-mouse or anti-human AF488 stain, relative to primary antibody, at a constant amount, was added for 30 minutes at 4° C. After washing, plates were run on a flow cytometer and binding of the indicated antibody (and the negative control, i.e., mIgG1 or hIgG1) was determined based on geometric mean fluorescence intensity in the AF488 channel.
For assay [8], the target named is T3, purified human CD2 ectodomain. Kind of assay: BLI (Octet Red96), IgG on anti-murine Fc biosensor, 50 nM human CD2 ectodomain, 1:1 model.
For assay [9] the target is unchanged. Kind of assay: BLI (Octet Red96), IgG on anti-murine Fc biosensor, 50 nM human CD2 ectodomain, 1:1 model, apparent monovalent affinity.
For assay [10], the target named is T2, human CD5 on cells. Kind of assay: flow cytometry on primary human T-cells, antibody titration 2 h at 37 C, AF488 secondary.
Assay [11] concerns the target T4, purified human CD5 ectodomain (human, UniProt P06127 25-372).
T4 sequence (looked up): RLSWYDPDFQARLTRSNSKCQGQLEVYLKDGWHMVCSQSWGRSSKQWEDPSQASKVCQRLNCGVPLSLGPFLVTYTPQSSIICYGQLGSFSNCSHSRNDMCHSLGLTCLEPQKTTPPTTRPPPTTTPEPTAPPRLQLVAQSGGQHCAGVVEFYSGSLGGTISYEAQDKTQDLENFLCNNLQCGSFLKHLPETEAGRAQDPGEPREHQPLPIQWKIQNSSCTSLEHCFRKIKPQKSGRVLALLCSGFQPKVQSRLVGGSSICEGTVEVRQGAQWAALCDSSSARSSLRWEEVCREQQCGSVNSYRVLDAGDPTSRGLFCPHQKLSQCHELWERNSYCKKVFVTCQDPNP
Put plainly: BLI (Octet Red96), IgG on anti-human Fc biosensor, 50 nM human CD5 ectodomain.
Procedure: To determine the binding characteristics of anti-CD5 antibody 5D7 hIgG1, antibody binding studies were performed at 25 degrees celsius in 1×PBS supplemented with 0.1% w/v bovine serum albumin with a Pall ForteBio Octet Red96 using biolayer interferometry (BLI).

Assay [12] addresses T2, human CD5 on cells. Put plainly: flow cytometry on primary human T-cells, antibody titration 2 h at 37 C, AF488 secondary, MFI.
Procedure: Secondary anti-mouse AF488 stain, at a constant amount, was added for 30 minutes at 4° C.

Take murine anti-CD2 antibody TS1/8: the EC50 with human CD2 on cells [1] was found to be 125 pM.

“murine anti-CD5 antibody UCHT2 (BioLegend)” showed an EC50 (read off the curve) in the assay with human CD5 on cells [2] of 300 pM. Besides, the EC50 with human CD5 on cells [3] was determined as 354 pM.

Turning to “murine anti-CD5 antibody CRIS-1 (Novus Biologicals)”, in the assay with human CD5 on cells [2], the EC50 (read off the curve) was found to be 40 pM. Also, in the assay with human CD5 on cells [3], the EC50 was 43 pM.

B1: anti-CD2 antibody Ab1 hIgG1 (antibody, V domains shown)
VH: QVQLVQSGAEVKKPGASVKVSCKASGYTFTEYYMYWVRQAPGQGLELMGRIDPEDGSIDYVEKFKKKVTLTADTSSSTAYMELSSLTSDDTAVYYCARGKFNYRFAYWGQGTLVTVSS
VL: DVVMTQSPPSLLVTLGQPASISCRSSQSLLHSSGNTYLNWLLQRPGQSPQPLIYLVSKLESGVPDRFSGSGSGTDFTLKISGVEAEDVGVYYCMQFTHYPYTFGQGTKLEIK
notes: Tested as human IgG1 (hIgG1)
Take B1: in assay [4], the Kd came out at 2120 pM. In assay [5], this molecule displayed a koff of 0.000289 s⁻¹ and a kon of 136000 M⁻¹ s⁻¹.

B2: anti-CD2 antibody RPA-2.10 mIgG1 (antibody, V domains shown)
VH: EVKLVESGGGLVKPGGSLKLSCAASGFTFSSYDMSWVRQTPEKRLEWVASISGGGFLYYLDSVKGRFTISRDNARNILYLHMTSLRSEDTAMYYCARSSYGEIMDYWGQGTSVTVSS
VL: DILLTQSPAILSVSPGERVSFSCRASQRIGTSIHWYQQRTTGSPRLLIKYASESISGIPSRFSGSGSGTDFTLSINSVESEDVADYYCQQSHGWPFTFGGGTKLEIER
notes: Murine IgG1; also called mRPA-2.10; murine anti-CD2 antibody RPA-2.10
The molecule B2 showed an EC50 with human CD2 on cells [6] of 1.84 pM. Besides, the “EC50 (read off the curve)” value with human CD2 on cells [7] is ~30 pM. In assay [8], this molecule registered a koff of 0.000172 s⁻¹ and a kon of 86000 M⁻¹ s⁻¹. The molecule further yielded an EC50 with human CD2 on cells [1] of 160 pM. In assay [9], the Kd is 2000 pM.

B3: anti-CD5 antibody 5D7 hIgG1 (humanized version of murine antibody 5D7) (antibody, V domains shown)
VH: QVTLKESGPVLVKPTETLTLTCTFSGFSLSTSGMGVGWIRQAPGKGLEWVAHIWWDDDVYYNPSLKSRLTITKDASKDQVSLKLSSVTAADTAVYYCVRRRATGTGFDYWGQGTLVTVSS
VL: NIVMTQSPSSLSASVGDRVTITCQASQDVGTAVAWYQQKPDQSPKLLIYWTSTRHTGVPDRFTGSGSGTDFTLTISSLQPEDIATYFCHQYNSYNTFGSGTKLEIK
notes: Tested as human IgG1 (hIgG1); also called anti-CD5 5D7 antibody; humanized 5D7
The molecule B3 registered an EC50 in the assay with human CD5 on cells [10] of 3 pM. Moreover, in assay [11], the Kd amounted to 141 pM, the off-rate (koff) amounted to 3.36e-05 s⁻¹ and the association rate constant (kon) was 239000 M⁻¹ s⁻¹. Moreover, in the assay with human CD5 on cells [12], the “EC50 (read off the curve)” value is ~30 pM.
